In patent CN115433280A (SUZHOU DIMA BIOTECHNOLOGY CO LTD, dated 2022):

T1: CD22 on Raji细胞 (UniProt P20273 20-847, limits assumed)
T1 construct: whole, on cells; also called 天然细胞表面CD22蛋白
T1 sequence (looked up): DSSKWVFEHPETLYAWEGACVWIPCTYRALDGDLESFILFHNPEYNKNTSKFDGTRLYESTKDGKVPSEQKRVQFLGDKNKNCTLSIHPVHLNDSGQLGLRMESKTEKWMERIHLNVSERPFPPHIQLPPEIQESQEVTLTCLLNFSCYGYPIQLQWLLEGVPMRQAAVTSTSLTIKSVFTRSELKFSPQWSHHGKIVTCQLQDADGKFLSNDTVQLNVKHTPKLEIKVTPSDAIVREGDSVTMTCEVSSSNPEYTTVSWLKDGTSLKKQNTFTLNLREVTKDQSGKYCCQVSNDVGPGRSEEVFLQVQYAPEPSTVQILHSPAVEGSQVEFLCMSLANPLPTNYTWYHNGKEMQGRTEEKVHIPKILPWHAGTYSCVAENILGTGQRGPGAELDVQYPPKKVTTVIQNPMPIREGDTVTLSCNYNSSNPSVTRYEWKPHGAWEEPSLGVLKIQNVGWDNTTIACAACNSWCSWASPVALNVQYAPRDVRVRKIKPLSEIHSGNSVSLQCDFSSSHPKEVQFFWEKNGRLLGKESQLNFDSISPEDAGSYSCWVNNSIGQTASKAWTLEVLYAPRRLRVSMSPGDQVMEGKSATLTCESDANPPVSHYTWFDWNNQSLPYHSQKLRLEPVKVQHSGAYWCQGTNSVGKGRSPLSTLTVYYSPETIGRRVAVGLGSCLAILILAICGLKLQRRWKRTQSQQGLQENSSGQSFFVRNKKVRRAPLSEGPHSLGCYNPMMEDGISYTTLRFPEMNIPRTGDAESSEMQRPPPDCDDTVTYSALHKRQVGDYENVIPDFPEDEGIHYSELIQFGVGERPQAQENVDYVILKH

B1: 命名为9A3的兔重组单克隆抗体 (antibody, V domains shown)
V domain 1: QSVEESGGRLVTPGTPLTLTCTVSGIDLSSYWMNWVRQAPGKGLEWIGIIWSDDNTYYANWAKGRFTISKTSSTTVDLTITSPTTEDTATYFCARGYVGDIWGPGTLITVS
V domain 2: ALVMTQTPSSVDVAVGGTVTIRCQASQNIYSGLAWYQQKPGQPPKLLIYGASNLASGVSSRFKGSGSGTQFTLTISGVECADAATYYCQQTYTSDNVDNPFGGGTEVVVE
notes: Rabbit recombinant monoclonal antibody expressed in 293 cells
B2: 命名为10F9的兔重组单克隆抗体 (antibody, V domains shown)
VH: QSVEESGGRLVTPGTPLTLTCTVSGFSLNTDAMIWVRQAPGKGLEYIGIIGSSGSAFFASWAKGRFTISKTSTTVDLTIISPTTEDTATYFCARFTGYGGYGRGGMDPWGPGTLVTVSS
VL: AQVLTQTPSSVSAAVGGTVTINCQSSESVHNNNWLSWYQQKPGQPPKLLIYKASTLASGVPSRFSGSGSGTQFTLTISGVQCDDAATYYCQATYNSGGWYVAFGGGTEVVVK
notes: as for B1
B3: 命名为8B5的兔重组单克隆抗体 (antibody, V domains shown)
VH: QEQLKESGGGLVTPGGSLTLTCTVSGIDLSSYAMGWVRQAPGKGLEYIGIVTYAGSAYYASWARGRFTISKTSTTVDLKITSPTTEDTATYFCARGVDNFYTLPDAFDPWGPGTLVTVS
VL: AYDMTQTPASVSAAVGGTVTINCQASQSISRFLSWYQQKPGQRPKLLIYRASTLASGVSSRFEGSGSGTQFTLTISGVECADAATYYCQQGDTYINVDNPFGGGTEVVVK
notes: as for B1

How the values were obtained:
CD22 FC融合标签蛋白 [1] = target: CD22 FC融合标签蛋白 (UniProt P20273); test: indirect ELISA, B cell clone supernatant on coated CD22 protein (1 μg/ml)
CD22 FC融合标签蛋白 [2] = target: CD22 FC融合标签蛋白 (UniProt P20273); test: ELISA, purified antibody at dilution 25K on coated CD22 protein (1 μg/ml)
CD22 FC融合标签蛋白 [3] = target: CD22 FC融合标签蛋白 (UniProt P20273); test: ELISA, purified antibody at dilution 15625k on coated CD22 protein (1 μg/ml)
CD22 FC融合标签蛋白 [4] = target: CD22 FC融合标签蛋白 (UniProt P20273); test: ELISA, purified antibody at dilution 625K on coated CD22 protein (1 μg/ml)
CD22 FC融合标签蛋白 [5] = target: CD22 FC融合标签蛋白 (UniProt P20273); test: ELISA, purified antibody at dilution 1K on coated CD22 protein (1 μg/ml)
CD22 FC融合标签蛋白 [6] = target: CD22 FC融合标签蛋白 (UniProt P20273); test: ELISA, purified antibody at dilution 125K on coated CD22 protein (1 μg/ml)
CD22 on Raji细胞 = target: T1, CD22 on Raji细胞; test: flow cytometry on Raji cells, antibody at several concentrations
CD22 FC融合标签蛋白 [7] = target: CD22 FC融合标签蛋白 (UniProt P20273); test: ELISA, purified antibody at dilution 3125k on coated CD22 protein (1 μg/ml)

| Binder | OD450 (CD22 FC融合标签蛋白 [1]) | ELISA reading (OD) at dilution 25K (CD22 FC融合标签蛋白 [2]) | ELISA reading (OD) at dilution 15625k (CD22 FC融合标签蛋白 [3]) | ELISA reading (OD) at dilution 625K (CD22 FC融合标签蛋白 [4]) | ELISA reading (OD) at dilution 1K (CD22 FC融合标签蛋白 [5]) | ELISA reading (OD) at dilution 125K (CD22 FC融合标签蛋白 [6]) | binding result (CD22 on Raji细胞) | ELISA reading (OD) at dilution 3125k (CD22 FC融合标签蛋白 [7]) |
| --- | --- | --- | --- | --- | --- | --- | --- | --- |
| B1 | 2.12 | 3.1 | 0.12 | 0.382 | 3.95 | 1.33 | binds | 0.18 |
| B2 | 1.86 | 3.37 | 0.125 | 0.405 | – | 1.39 | binds | 0.171 |
| B3 | 1.93 | 3.52 | 0.146 | 0.528 | – | 1.92 | binds | 0.203 |
